*1 amine or outer side, *2 acyl side, *3 side chain or, on linkers, in order; H or OH if unused. Where no end group is shown, it is not given here. Side-chain parts run from the residue outwards. [ ]: non-standard residue; d: D form. The star is where a group is joined. C18 diacid = O=C(O)CCCCCCCCCCCCCCCCC(=O)*; γGlu = O=C(O)[C@H](CCC(=O)[*:2])N[*:1]; NMeI = CC[C@H](C)[C@H](NC)C(=O)O; Api = NC1(C(=O)O)CCNCC1; Abu = CC[C@H](N)C(=O)O; Dap = NC[C@H](N)C(=O)O; AEEA = NCCOCCOCC(=O)O; Aib = CC(C)(N)C(=O)O
B1: SEQ ID NO 117 (peptide)
peptide: [NMeI]VLSLD[dV]PIKLK([AEEA-AEEA-γGlu-C18 diacid])KILLEQEKQKKQREQAETN[Api]QILAQV-NH2
modifications: N-terminus assumed
SMILES: CC[C@H](C)[C@H](NC)C(=O)N[C@H](C(=O)N[C@@H](CC(C)C)C(=O)N[C@@H](CO)C(=O)N[C@@H](CC(C)C)C(=O)N[C@@H](CC(=O)O)C(=O)N[C@@H](C(=O)N1CCC[C@H]1C(=O)N[C@H](C(=O)N[C@@H](CCCCN)C(=O)N[C@@H](CC(C)C)C(=O)N[C@@H](CCCCNC(=O)COCCOCCNC(=O)COCCOCCNC(=O)CC[C@H](NC(=O)CCCCCCCCCCCCCCCCC(=O)O)C(=O)O)C(=O)N[C@@H](CCCCN)C(=O)N[C@H](C(=O)N[C@@H](CC(C)C)C(=O)N[C@@H](CC(C)C)C(=O)N[C@@H](CCC(=O)O)C(=O)N[C@@H](CCC(N)=O)C(=O)N[C@@H](CCC(=O)O)C(=O)N[C@@H](CCCCN)C(=O)N[C@@H](CCC(N)=O)C(=O)N[C@@H](CCCCN)C(=O)N[C@@H](CCCCN)C(=O)N[C@@H](CCC(N)=O)C(=O)N[C@@H](CCCNC(=N)N)C(=O)N[C@@H](CCC(=O)O)C(=O)N[C@@H](CCC(N)=O)C(=O)N[C@@H](C)C(=O)N[C@@H](CCC(=O)O)C(=O)N[C@H](C(=O)N[C@@H](CC(N)=O)C(=O)NC1(C(=O)N[C@@H](CCC(N)=O)C(=O)N[C@H](C(=O)N[C@@H](CC(C)C)C(=O)N[C@@H](C)C(=O)N[C@@H](CCC(N)=O)C(=O)N[C@H](C(N)=O)C(C)C)[C@@H](C)CC)CCNCC1)[C@@H](C)O)[C@@H](C)CC)[C@@H](C)CC)C(C)C)C(C)C
B2: SEQ ID NO 139 (peptide)
peptide: [NMeI]VLSLD[dV]PIKLK([γGlu-C18 diacid])KILLEQEKQKKQREQAETN[Abu]QILAQV-NH2
modifications: N-terminus assumed
SMILES: CC[C@H](NC(=O)[C@H](CC(N)=O)NC(=O)[C@@H](NC(=O)[C@H](CCC(=O)O)NC(=O)[C@H](C)NC(=O)[C@H](CCC(N)=O)NC(=O)[C@H](CCC(=O)O)NC(=O)[C@H](CCCNC(=N)N)NC(=O)[C@H](CCC(N)=O)NC(=O)[C@H](CCCCN)NC(=O)[C@H](CCCCN)NC(=O)[C@H](CCC(N)=O)NC(=O)[C@H](CCCCN)NC(=O)[C@H](CCC(=O)O)NC(=O)[C@H](CCC(N)=O)NC(=O)[C@H](CCC(=O)O)NC(=O)[C@H](CC(C)C)NC(=O)[C@H](CC(C)C)NC(=O)[C@@H](NC(=O)[C@H](CCCCN)NC(=O)[C@H](CCCCNC(=O)CC[C@H](NC(=O)CCCCCCCCCCCCCCCCC(=O)O)C(=O)O)NC(=O)[C@H](CC(C)C)NC(=O)[C@H](CCCCN)NC(=O)[C@@H](NC(=O)[C@@H]1CCCN1C(=O)[C@H](NC(=O)[C@H](CC(=O)O)NC(=O)[C@H](CC(C)C)NC(=O)[C@H](CO)NC(=O)[C@H](CC(C)C)NC(=O)[C@@H](NC(=O)[C@@H](NC)[C@@H](C)CC)C(C)C)C(C)C)[C@@H](C)CC)[C@@H](C)CC)[C@@H](C)O)C(=O)N[C@@H](CCC(N)=O)C(=O)N[C@H](C(=O)N[C@@H](CC(C)C)C(=O)N[C@@H](C)C(=O)N[C@@H](CCC(N)=O)C(=O)N[C@H](C(N)=O)C(C)C)[C@@H](C)CC
B3: SEQ ID NO 140 (peptide)
peptide: [NMeI]VLSLD[dV]PIKLK([γGlu-C18 diacid])KILLEQEKQKKQREQAETN[Dap]QILAQV-NH2
modifications: N-terminus assumed
SMILES: CC[C@H](C)[C@H](NC)C(=O)N[C@H](C(=O)N[C@@H](CC(C)C)C(=O)N[C@@H](CO)C(=O)N[C@@H](CC(C)C)C(=O)N[C@@H](CC(=O)O)C(=O)N[C@@H](C(=O)N1CCC[C@H]1C(=O)N[C@H](C(=O)N[C@@H](CCCCN)C(=O)N[C@@H](CC(C)C)C(=O)N[C@@H](CCCCNC(=O)CC[C@H](NC(=O)CCCCCCCCCCCCCCCCC(=O)O)C(=O)O)C(=O)N[C@@H](CCCCN)C(=O)N[C@H](C(=O)N[C@@H](CC(C)C)C(=O)N[C@@H](CC(C)C)C(=O)N[C@@H](CCC(=O)O)C(=O)N[C@@H](CCC(N)=O)C(=O)N[C@@H](CCC(=O)O)C(=O)N[C@@H](CCCCN)C(=O)N[C@@H](CCC(N)=O)C(=O)N[C@@H](CCCCN)C(=O)N[C@@H](CCCCN)C(=O)N[C@@H](CCC(N)=O)C(=O)N[C@@H](CCCNC(=N)N)C(=O)N[C@@H](CCC(=O)O)C(=O)N[C@@H](CCC(N)=O)C(=O)N[C@@H](C)C(=O)N[C@@H](CCC(=O)O)C(=O)N[C@H](C(=O)N[C@@H](CC(N)=O)C(=O)N[C@@H](CN)C(=O)N[C@@H](CCC(N)=O)C(=O)N[C@H](C(=O)N[C@@H](CC(C)C)C(=O)N[C@@H](C)C(=O)N[C@@H](CCC(N)=O)C(=O)N[C@H](C(N)=O)C(C)C)[C@@H](C)CC)[C@@H](C)O)[C@@H](C)CC)[C@@H](C)CC)C(C)C)C(C)C
B4: SEQ ID NO 23 (peptide)
peptide: [NMeI]VLSLD[dV]PIKLK([γGlu-C18 diacid])QILLKQERQKKQREQAEKN[Aib]QILEQV-NH2
modifications: N-terminus assumed
SMILES: CC[C@H](C)[C@H](NC)C(=O)N[C@H](C(=O)N[C@@H](CC(C)C)C(=O)N[C@@H](CO)C(=O)N[C@@H](CC(C)C)C(=O)N[C@@H](CC(=O)O)C(=O)N[C@@H](C(=O)N1CCC[C@H]1C(=O)N[C@H](C(=O)N[C@@H](CCCCN)C(=O)N[C@@H](CC(C)C)C(=O)N[C@@H](CCCCNC(=O)CC[C@H](NC(=O)CCCCCCCCCCCCCCCCC(=O)O)C(=O)O)C(=O)N[C@@H](CCC(N)=O)C(=O)N[C@H](C(=O)N[C@@H](CC(C)C)C(=O)N[C@@H](CC(C)C)C(=O)N[C@@H](CCCCN)C(=O)N[C@@H](CCC(N)=O)C(=O)N[C@@H](CCC(=O)O)C(=O)N[C@@H](CCCNC(=N)N)C(=O)N[C@@H](CCC(N)=O)C(=O)N[C@@H](CCCCN)C(=O)N[C@@H](CCCCN)C(=O)N[C@@H](CCC(N)=O)C(=O)N[C@@H](CCCNC(=N)N)C(=O)N[C@@H](CCC(=O)O)C(=O)N[C@@H](CCC(N)=O)C(=O)N[C@@H](C)C(=O)N[C@@H](CCC(=O)O)C(=O)N[C@@H](CCCCN)C(=O)N[C@@H](CC(N)=O)C(=O)NC(C)(C)C(=O)N[C@@H](CCC(N)=O)C(=O)N[C@H](C(=O)N[C@@H](CC(C)C)C(=O)N[C@@H](CCC(=O)O)C(=O)N[C@@H](CCC(N)=O)C(=O)N[C@H](C(N)=O)C(C)C)[C@@H](C)CC)[C@@H](C)CC)[C@@H](C)CC)C(C)C)C(C)C
B5: SEQ ID NO 141 (peptide)
peptide: [NMeI]VLSLD[dV]PIKLK([γGlu-C18 diacid])KILLEQEKQKKQREQAETN[Api]QILAQV-NH2
modifications: N-terminus assumed
SMILES: CC[C@H](C)[C@H](NC)C(=O)N[C@H](C(=O)N[C@@H](CC(C)C)C(=O)N[C@@H](CO)C(=O)N[C@@H](CC(C)C)C(=O)N[C@@H](CC(=O)O)C(=O)N[C@@H](C(=O)N1CCC[C@H]1C(=O)N[C@H](C(=O)N[C@@H](CCCCN)C(=O)N[C@@H](CC(C)C)C(=O)N[C@@H](CCCCNC(=O)CC[C@H](NC(=O)CCCCCCCCCCCCCCCCC(=O)O)C(=O)O)C(=O)N[C@@H](CCCCN)C(=O)N[C@H](C(=O)N[C@@H](CC(C)C)C(=O)N[C@@H](CC(C)C)C(=O)N[C@@H](CCC(=O)O)C(=O)N[C@@H](CCC(N)=O)C(=O)N[C@@H](CCC(=O)O)C(=O)N[C@@H](CCCCN)C(=O)N[C@@H](CCC(N)=O)C(=O)N[C@@H](CCCCN)C(=O)N[C@@H](CCCCN)C(=O)N[C@@H](CCC(N)=O)C(=O)N[C@@H](CCCNC(=N)N)C(=O)N[C@@H](CCC(=O)O)C(=O)N[C@@H](CCC(N)=O)C(=O)N[C@@H](C)C(=O)N[C@@H](CCC(=O)O)C(=O)N[C@H](C(=O)N[C@@H](CC(N)=O)C(=O)NC1(C(=O)N[C@@H](CCC(N)=O)C(=O)N[C@H](C(=O)N[C@@H](CC(C)C)C(=O)N[C@@H](C)C(=O)N[C@@H](CCC(N)=O)C(=O)N[C@H](C(N)=O)C(C)C)[C@@H](C)CC)CCNCC1)[C@@H](C)O)[C@@H](C)CC)[C@@H](C)CC)C(C)C)C(C)C
B6: SEQ ID NO 138 (peptide)
peptide: [NMeI]VLSLD[dV]PIKLK([γGlu-C18 diacid])KILLEQEKQKKQREQAETNAQILAQV-NH2
modifications: N-terminus assumed
SMILES: CC[C@H](C)[C@H](NC)C(=O)N[C@H](C(=O)N[C@@H](CC(C)C)C(=O)N[C@@H](CO)C(=O)N[C@@H](CC(C)C)C(=O)N[C@@H](CC(=O)O)C(=O)N[C@@H](C(=O)N1CCC[C@H]1C(=O)N[C@H](C(=O)N[C@@H](CCCCN)C(=O)N[C@@H](CC(C)C)C(=O)N[C@@H](CCCCNC(=O)CC[C@H](NC(=O)CCCCCCCCCCCCCCCCC(=O)O)C(=O)O)C(=O)N[C@@H](CCCCN)C(=O)N[C@H](C(=O)N[C@@H](CC(C)C)C(=O)N[C@@H](CC(C)C)C(=O)N[C@@H](CCC(=O)O)C(=O)N[C@@H](CCC(N)=O)C(=O)N[C@@H](CCC(=O)O)C(=O)N[C@@H](CCCCN)C(=O)N[C@@H](CCC(N)=O)C(=O)N[C@@H](CCCCN)C(=O)N[C@@H](CCCCN)C(=O)N[C@@H](CCC(N)=O)C(=O)N[C@@H](CCCNC(=N)N)C(=O)N[C@@H](CCC(=O)O)C(=O)N[C@@H](CCC(N)=O)C(=O)N[C@@H](C)C(=O)N[C@@H](CCC(=O)O)C(=O)N[C@H](C(=O)N[C@@H](CC(N)=O)C(=O)N[C@@H](C)C(=O)N[C@@H](CCC(N)=O)C(=O)N[C@H](C(=O)N[C@@H](CC(C)C)C(=O)N[C@@H](C)C(=O)N[C@@H](CCC(N)=O)C(=O)N[C@H](C(N)=O)C(C)C)[C@@H](C)CC)[C@@H](C)O)[C@@H](C)CC)[C@@H](C)CC)C(C)C)C(C)C

Experiments:
[1] = molecular target: T1, CRF1R receptor (UniProt P34998 24-415, limits assumed); experiment: cell-based or functional assay
T1 sequence (looked up): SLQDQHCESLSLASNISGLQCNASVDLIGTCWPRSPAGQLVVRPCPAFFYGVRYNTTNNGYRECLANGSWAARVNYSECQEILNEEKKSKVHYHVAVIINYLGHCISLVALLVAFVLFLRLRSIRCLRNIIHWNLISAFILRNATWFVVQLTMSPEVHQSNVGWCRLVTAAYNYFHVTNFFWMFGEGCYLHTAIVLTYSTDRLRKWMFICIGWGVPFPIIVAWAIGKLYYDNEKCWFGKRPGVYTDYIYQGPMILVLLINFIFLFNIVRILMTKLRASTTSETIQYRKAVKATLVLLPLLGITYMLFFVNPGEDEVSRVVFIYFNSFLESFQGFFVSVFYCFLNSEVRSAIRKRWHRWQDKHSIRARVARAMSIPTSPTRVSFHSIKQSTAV

[2] = molecular target: human corticotropin-releasing factor 2a (CRF2a receptor) (human), Q13324; experiment: cell-based or functional assay
Sequence of human corticotropin-releasing factor 2a (CRF2a receptor) (human), Q13324 (Q13324 20-411): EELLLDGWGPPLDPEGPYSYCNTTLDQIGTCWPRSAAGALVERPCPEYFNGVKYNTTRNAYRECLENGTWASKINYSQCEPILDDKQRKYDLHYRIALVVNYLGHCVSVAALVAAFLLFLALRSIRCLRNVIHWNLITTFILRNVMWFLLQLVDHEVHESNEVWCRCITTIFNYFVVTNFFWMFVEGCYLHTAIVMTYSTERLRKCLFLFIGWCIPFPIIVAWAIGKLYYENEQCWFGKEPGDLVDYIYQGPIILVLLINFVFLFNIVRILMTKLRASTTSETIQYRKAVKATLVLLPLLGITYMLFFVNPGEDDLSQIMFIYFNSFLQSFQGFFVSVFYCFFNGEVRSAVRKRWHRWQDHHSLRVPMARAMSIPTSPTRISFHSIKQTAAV

Emax (% I) [1] [%]	EC50 [nM] (cAMP) [2]	Binder
3	0.63	B1
13	0.05	B2
14	0.17	B3
35	0.33	B4
32	0.16	B5
10	0.05	B6

From patent US20260001928A1 (CORTERIA PHARMACEUTICALS, priority 2022, published 2026)
